This note sets out measurements from article PMC10200313 (ACS chemical biology, 2022).

This experiment deals with T1, 6E peptide (14-mer peptide derived from UBC6e, with N-terminal triglycine motif) (Homo sapiens, UniProt Q9Y385).
T1 chain: QADQEAKELARQIS
As to the kind of experiment: SPR.

B1: Nb6E labeled with biotin (Nb6E-biotin) (VHH)
VHH: QVQLQESGGGLVQPGGSLRLSCAASGFVFENSAMAWYRQAPGKERELIAVIGTTFIKLAESVKGRFTISRDNAKSTVYLQMNNLKPEDTAVYYCSKSGAYWGQGTQVTVSS
Consider B1, for which the binding result was “binds”.
